Patent US20030157712A1, “Methods for determining cell responses through EphB receptors” (priority 1997, published 2003)

How the values were obtained:
[1] = tested on: human renal microvascular endothelial cells; experiment: Solid phase cell attachment assay (HRMEC); format: cell-based
Description: Solid phase cell attachment assays. Forty-eight-well plates (Falcon) were coated with a layer of nitrocellulose (Schleicher & Schuell) and allowed to air dry as described (47). Coated wells were incubated overnight at 4° C. with PBS containing matrix proteins at the indicated concentrations alone (no addition, NA) or in combination with dimeric EphrinB1/Fc. Two hours prior to assay, wells were washed twice then blocked at 37° C. with 1% BSA. Serum starved cells were harvested in 2 mM EDTA in PBS (HEK293) or recovered by trypsinization (HRMEC), washed twice in serum free medium containing 1% BSA, then plated at a density of 0.7-1×10^5 cells per well. After incubation at 37° C. for 1 hour (or as specified), unattached cells were dislodged by 5 brisk slaps of the plate on a horizontal surface. Wells were gently washed with PBS until cells were not adherent to albumin-coated wells. Adherent cells were fixed with 2% glutaraldehyde, stained with 0.5% crystal violet (in EtOH), and quantified by OD reading at 570 nm. In experiments using competitive peptides or blocking antibodies, cells were preincubated with the indicated peptides (100 μM) or antibodies (10 μg/ml) for 15 min at RT before plating. Results representative of three independent experiments are given as OD values and represent the mean of duplicate or triplicate wells±SEM.
To determine if this ephrin-B1 surface density effect was mediated through integrins, a defined RGD peptide, GRGDSPK (SEQ ID NO:3), was applied to the surfaces in the absence and presence of ephrin-B1/Fc, or IgG1. Attachment assays of serum-starved microvascular endothelial cells to GRGDSPK (SEQ ID NO:3)-coated 48-well-plates were performed as described herein. Cells were preincubated for 15 min at 22° C. with blocking peptides (100 uM) or anti-integrin antibodies (10 ug/ml) before plating. Similar results were obtained using fibrinogen (1 ug/cm^2). HEK293 cells were transiently transfected with pSRα-EphB1 and attachment assays were performed after 48 hours as described herein.

[2] = tested on: LMW-PTP recruitment to EphB1 and EphB2 complexes; experiment: LMW-PTP recruitment to EphB1 and EphB2 complexes (co-immunoprecipitation, immunoblot); format: cell-based, human
Description: Ligand stimulation and immunoprecipitation of endogenous EphB receptors. Primary HRMEC were used at passages 3-6, as described (12). P19 cells were cultured as recommended (ATCC, Rockville, Md.). Ninety min prior to ligand stimulation, cells (2×10^5cells/60 mm dish) were plated on Matrigel-(Collaborative Biomedical Products, Becton Dickinson, Bedford, Mass., as recommended) or fibronectin-coated (29) dishes. Ligand (ephrin-B1/Fc) or control (ORF/Fc) (30) multimers were generated by preincubation with anti-Fc at a fixed ratio of 0.1× the indicated concentrations of Fc fusion proteins [50 ng ml^−1 anti-Fc for 500 ng ml^−1 Fc fusion protein]. If not otherwise indicated, Fc fusion proteins (ephrinB1/Fc or ORF/Fc) were used at 500 ng ml^−1 in the absence or presence of preclustering anti-Fc at 50 ng ml^−1. Cells were incubated with agonists at 37° C. for 10 min, or as described in the figure legends. […] Precipitated proteins were analyzed by immunoblot (15).
It was reasoned that alternative signaling responses mediated through EphB receptors might reflect differential association of additional receptor signaling complex components. […] Accordingly, EphB1 immunoprecipitates were analyzed for LMW-PTP immunoreactivity (11,17).

EphB2 = target: T1, EphB2 (Homo sapiens, UniProt P29323); experiment: EphB2 immunoprecipitation and phosphotyrosine immunoblot; format: cell-based; conditions: HRMEC; Fc fusion proteins 500 ng ml^−1
T1 construct: EphB2 receptor immunoprecipitates (from HRMEC); endogenous in cells; host or cells: HRMEC
T1 sequence (P29323 19-1055): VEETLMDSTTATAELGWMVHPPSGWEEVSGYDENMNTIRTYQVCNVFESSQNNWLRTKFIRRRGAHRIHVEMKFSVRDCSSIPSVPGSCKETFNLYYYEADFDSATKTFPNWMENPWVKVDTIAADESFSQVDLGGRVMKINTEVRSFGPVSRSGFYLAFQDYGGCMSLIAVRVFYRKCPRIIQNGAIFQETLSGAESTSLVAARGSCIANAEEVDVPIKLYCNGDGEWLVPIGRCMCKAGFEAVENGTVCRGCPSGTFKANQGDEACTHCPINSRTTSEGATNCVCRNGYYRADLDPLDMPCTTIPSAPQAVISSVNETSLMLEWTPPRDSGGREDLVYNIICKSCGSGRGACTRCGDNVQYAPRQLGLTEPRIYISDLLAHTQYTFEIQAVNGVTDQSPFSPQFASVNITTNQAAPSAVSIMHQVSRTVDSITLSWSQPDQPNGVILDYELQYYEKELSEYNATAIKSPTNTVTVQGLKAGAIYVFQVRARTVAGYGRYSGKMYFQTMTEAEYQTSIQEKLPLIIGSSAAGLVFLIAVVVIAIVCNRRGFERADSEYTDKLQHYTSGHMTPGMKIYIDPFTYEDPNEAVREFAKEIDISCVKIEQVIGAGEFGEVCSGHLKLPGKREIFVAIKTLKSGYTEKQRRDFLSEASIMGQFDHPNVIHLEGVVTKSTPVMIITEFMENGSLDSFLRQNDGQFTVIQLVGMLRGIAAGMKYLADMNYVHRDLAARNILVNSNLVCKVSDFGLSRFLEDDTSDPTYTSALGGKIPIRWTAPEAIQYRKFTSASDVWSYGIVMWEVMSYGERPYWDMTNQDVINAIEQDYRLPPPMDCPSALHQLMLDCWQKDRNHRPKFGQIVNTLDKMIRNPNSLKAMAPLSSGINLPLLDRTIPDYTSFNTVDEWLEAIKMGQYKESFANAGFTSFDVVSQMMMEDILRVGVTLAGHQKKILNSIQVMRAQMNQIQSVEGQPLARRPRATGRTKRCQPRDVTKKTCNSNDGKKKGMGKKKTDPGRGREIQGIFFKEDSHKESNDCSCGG
Description: Ligand stimulation and immunoprecipitation of endogenous EphB receptors. Primary HRMEC were used at passages 3-6, as described (12). P19 cells were cultured as recommended (ATCC, Rockville, Md.). Ninety min prior to ligand stimulation, cells (2×10^5cells/60 mm dish) were plated on Matrigel-(Collaborative Biomedical Products, Becton Dickinson, Bedford, Mass., as recommended) or fibronectin-coated (29) dishes. Ligand (ephrin-B1/Fc) or control (ORF/Fc) (30) multimers were generated by preincubation with anti-Fc at a fixed ratio of 0.1× the indicated concentrations of Fc fusion proteins [50 ng ml^−1 anti-Fc for 500 ng ml^−1 Fc fusion protein]. If not otherwise indicated, Fc fusion proteins (ephrinB1/Fc or ORF/Fc) were used at 500 ng ml^−1 in the absence or presence of preclustering anti-Fc at 50 ng ml^−1. Cells were incubated with agonists at 37° C. for 10 min, or as described in the figure legends. Immunoprecipitations were conducted on either cell lysates (P19) or on Triticum vulgaris lectin affinity purified fractions of HRMEC (15) (needed to reduce the background from Matrigel). Precipitated proteins were analyzed by immunoblot (15).
EphB1 and EphB2 immunoprecipitates from HRMEC stimulated with dimeric or multimeric (+anti-Fc) ephrin-B1/Fc were analyzed for receptor activation (anti-PY), and coprecipitation of heteromeric receptors (anti-EphB1, or anti-EphB2). […]

[3] = fibrinogen-coated nitrocellulose surfaces

tyrosine phosphorylation of EphB2 (EphB2): stimulated
B1: ephrin-B1/Fc dimers: disulfide-linked immunoglobulin Fc fusion form of ephrin-B1 (protein)
chain: LAKNLEPVSWSSLNPKFLSGKGLVIYPKIGDKLDIICPRAEAGRPYEYYKLYLVRPEQAAACSTVLDPNVLVTCNRPEQEIRFTIKFQEFSPNYMGLEFKKHHDYYITSTSNGSLEGLENREGGVCRTRTMKIIMKVGQDPNAVTPEQLTTSRPSKEADNTVKMATQAPGSRGSLGDSDGKHETVNQEEKSGPGASGGSSGDPDGFFNSK
modifications: left off: a dimerising Fc or GST
endothelial cell attachment, plates pre-coated using standard procedures ([1]; alone or in the presence of fibrinogen, no nitrocellulose): did not promote cell attachment | cell attachment at densities higher than 300 ng/cm^2 [1, 3]: sharp decline | coating density evoking maximal cell attachment [1, 3]: 300 ng/cm^2 | endothelial attachment, ligand adsorbed to nitrocellulose-coated surfaces ([1]; non-denaturing conditions, with fibrinogen, compared with Fc control human IgG1): promoted endothelial attachment | recruitment of 18 kDa tyrosine phosphoprotein (LMW-PTP) to EphB1 and EphB2 immunoprecipitates [2]: not
